Results taken from publication PMC6030378.

Biological target: human IgG1 Fc fragment released from ROR-ED-Fc by 3C protease (human)
Assay: SEC; Superdex 200 10/300 of the fusion protein cleaved with 3C protease; 50 mM HEPES, 500 mM NaCl, 150 mM KCl, 300 mM arginine, 5% glycerol; ROR-ED at 12.4 ml, Fc at 14.3 ml; mass estimated against standards, glycans considered

stoichiometry N: 2
Substance: human IgG1 Fc fragment released from ROR-ED-Fc by 3C protease (domain or fragment)
